Measurements: patent US20020049303

Legend:
[1] = biological target: recombinant pro-memapsin 2 (pro-M2pd)
[2] = biological target: T1, synthetic peptide NCH-gamma VGSGVLLSRK
T1 chain: VGSGVLLSRK

[3] = biological target: oxidized bovine insulin B chain, P01317
[4] = biological target: T2, synthetic peptide PS1-gamma LVNMAEGD
T2 chain: LVNMAEGD

[5] = biological target: T3, peptide from the processing site of presenilin 1 SVNM/AEGD
T3 chain: SVNMAEGD

[6] = biological target: T4, synthetic peptide from the APP beta-secretase site with the Swedish mutation SEVNL/DAEFR
T4 chain: SEVNLDAEFR

[7] = biological target: T5, synthetic peptide from the APP beta-secretase site SEVKM/DAEFR
T5 chain: SEVKMDAEFR

Chain of recombinant pro-memapsin 2 (pro-M2pd) (chain, as listed by the source): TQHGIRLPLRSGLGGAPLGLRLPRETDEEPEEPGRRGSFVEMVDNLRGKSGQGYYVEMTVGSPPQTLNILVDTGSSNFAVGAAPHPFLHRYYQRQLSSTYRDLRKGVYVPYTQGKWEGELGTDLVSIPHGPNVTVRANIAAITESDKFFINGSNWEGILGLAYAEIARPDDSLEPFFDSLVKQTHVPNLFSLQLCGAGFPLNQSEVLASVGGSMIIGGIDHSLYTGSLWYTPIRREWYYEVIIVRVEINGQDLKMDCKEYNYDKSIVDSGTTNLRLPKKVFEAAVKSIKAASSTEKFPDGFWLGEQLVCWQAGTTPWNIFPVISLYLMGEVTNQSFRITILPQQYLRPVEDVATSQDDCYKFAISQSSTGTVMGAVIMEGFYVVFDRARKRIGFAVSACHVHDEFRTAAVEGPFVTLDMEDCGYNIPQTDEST
Chain of oxidized bovine insulin B chain, P01317 (P01317 25-54): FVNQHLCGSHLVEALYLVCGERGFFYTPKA

B1: recombinant memapsin 2 (M2pd), auto-activated from pro-M2pd at pH 4.0 (protein)
chain: GIRLPLRSGLGGAPLGLRLPRETDEEPEEPGRRGSFVEMVDNLRGKSGQGYYVEMTVGSPPQTLNILVDTGSSNFAVGAAPHPFLHRYYQRQLSSTYRDLRKGVYVPYTQGKWEGELGTDLVSIPHGPNVTVRANIAAITESDKFFINGSNWEGILGLAYAEIARPDDSLEPFFDSLVKQTHVPNLFSLQLCGAGFPLNQSEVLASVGGSMIIGGIDHSLYTGSLWYTPIRREWYYEVIIVRVEINGQDLKMDCKEYNYDKSIVDSGTTNLRLPKKVFEAAVKSIKAASSTEKFPDGFWLGEQLVCWQAGTTPWNIFPVISLYLMGEVTNQSFRITILPQQYLRPVEDVATSQDDCYKFAISQSSTGTVMGAVIMEGFYVVFDRARKRIGFAVSA
self-cleavage sites [1]: M^2pd cleaved its pro peptide (2 sites) and the protease portion (2 sites) during a 16 h incubation after activation | hydrolytic sites (HPLC and mass spectrometry) [2]: Three hydrolytic sites were identified from peptide NCH-gamma | hydrolytic sites (HPLC and mass spectrometry) [3]: Two hydrolytic sites were identified on oxidized insulin B-chain | hydrolytic sites (HPLC and mass spectrometry) [4]: A single cleavage site was observed in synthetic peptide PS1-gamma | Km [5]: Km, 15.2 mM | kcat [5]: kcat, 0.67 s^-1 | kcat/Km [5]: kcat/Km, 43.8 s^-1M^-1 | Km [6]: Km, 1 mM | fold increase of kcat/Km over native APP [6]: 60-fold increase of kcat/Km over that for native APP | kcat [6]: tcat, 2.45 s^-1 | kcat/Km [6]: kcat/Km, 2450 s^-1M^-1 | kcat/Km [7]: kcat/Km, 39.9 s^-1M^-1 | hydrolysis (Native proteins): Native proteins were not cleaved by M2pd
